“And” between values parts separate entries of the source, which are not always exact repeats. Identical values can stand only once. Bridges are numbered along the chain shown (N, C = ends). Where no end group is shown, it is not given here. [ ]: non-standard residue; d: D form. Chg = N[C@H](C(=O)O)C1CCCCC1; NMeA = CN[C@@H](C)C(=O)O

A word on the Kd: it is the free concentration of one partner at which half of the binding sites on the other are occupied at equilibrium, for simple one-to-one binding. Higher therefore signals a looser complex.

To fix the notation:
B1: SEQ ID NO: 415 (peptide)
peptide: WAQKILDEHGSRVWG
HELM: PEPTIDE1{W.[meA].Q.K.I.L.D.E.H.[O=C([C@@H](N[*:1])C1CCCCC1)[*:2]].S.R.V.W.G.[am]}$PEPTIDE1,PEPTIDE1,4:R3-8:R3$$$V2.0
SMILES: CC[C@H](C)[C@@H]1NC(=O)[C@@H](NC(=O)[C@H](CCC(N)=O)NC(=O)[C@H](C)N(C)C(=O)[C@@H](N)Cc2c[nH]c3ccccc23)CCCCNC(=O)CC[C@@H](C(=O)N[C@@H](Cc2c[nH]cn2)C(=O)N[C@H](C(=O)N[C@@H](CO)C(=O)N[C@@H](CCCNC(=N)N)C(=O)N[C@H](C(=O)N[C@@H](Cc2c[nH]c3ccccc23)C(=O)NCC(N)=O)C(C)C)C2CCCCC2)NC(=O)[C@H](CC(=O)O)NC(=O)[C@H](CC(C)C)NC1=O
B2: SEQ ID NO: 420 (peptide)
peptide: WAQKGLDEHVQRVWG
HELM: PEPTIDE1{W.[meA].Q.K.[O=C([C@@H](N[*:1])C1CCCCC1)[*:2]].L.D.E.H.V.Q.R.V.W.G.[am]}$PEPTIDE1,PEPTIDE1,4:R3-8:R3$$$V2.0
SMILES: CC(C)C[C@@H]1NC(=O)[C@H](C2CCCCC2)NC(=O)[C@@H](NC(=O)[C@H](CCC(N)=O)NC(=O)[C@H](C)N(C)C(=O)[C@@H](N)Cc2c[nH]c3ccccc23)CCCCNC(=O)CC[C@@H](C(=O)N[C@@H](Cc2c[nH]cn2)C(=O)N[C@H](C(=O)N[C@@H](CCC(N)=O)C(=O)N[C@@H](CCCNC(=N)N)C(=O)N[C@H](C(=O)N[C@@H](Cc2c[nH]c3ccccc23)C(=O)NCC(N)=O)C(C)C)C(C)C)NC(=O)[C@H](CC(=O)O)NC1=O
B3: SEQ ID NO: 416 (peptide)
peptide: WAQKILDEHGSRVWG
HELM: PEPTIDE1{[ac].W.[meA].Q.K.I.L.D.E.H.[O=C([C@@H](N[*:1])C1CCCCC1)[*:2]].S.R.V.W.G.[am]}$PEPTIDE1,PEPTIDE1,5:R3-9:R3$$$V2.0
SMILES: CC[C@H](C)[C@@H]1NC(=O)[C@@H](NC(=O)[C@H](CCC(N)=O)NC(=O)[C@H](C)N(C)C(=O)[C@H](Cc2c[nH]c3ccccc23)NC(C)=O)CCCCNC(=O)CC[C@@H](C(=O)N[C@@H](Cc2c[nH]cn2)C(=O)N[C@H](C(=O)N[C@@H](CO)C(=O)N[C@@H](CCCNC(=N)N)C(=O)N[C@H](C(=O)N[C@@H](Cc2c[nH]c3ccccc23)C(=O)NCC(N)=O)C(C)C)C2CCCCC2)NC(=O)[C@H](CC(=O)O)NC(=O)[C@H](CC(C)C)NC1=O
B4: SEQ ID NO: 422 (peptide)
peptide: W[NMeA]QK[Chg]LDEHVQRVWG-NH2
modifications: lactam 4-8; not fully specified (N-terminus); printed as H17C8C(O)NH-W-NMeA-QK*-Chg-LDE*HVQRVWG-NH2
B5: SEQ ID NO: 421 (peptide)
peptide: WAQKGLDEHVQRVWG
HELM: PEPTIDE1{[ac].W.[meA].Q.K.[O=C([C@@H](N[*:1])C1CCCCC1)[*:2]].L.D.E.H.V.Q.R.V.W.G.[am]}$PEPTIDE1,PEPTIDE1,5:R3-9:R3$$$V2.0
SMILES: CC(=O)N[C@@H](Cc1c[nH]c2ccccc12)C(=O)N(C)[C@@H](C)C(=O)N[C@@H](CCC(N)=O)C(=O)N[C@H]1CCCCNC(=O)CC[C@@H](C(=O)N[C@@H](Cc2c[nH]cn2)C(=O)N[C@H](C(=O)N[C@@H](CCC(N)=O)C(=O)N[C@@H](CCCNC(=N)N)C(=O)N[C@H](C(=O)N[C@@H](Cc2c[nH]c3ccccc23)C(=O)NCC(N)=O)C(C)C)C(C)C)NC(=O)[C@H](CC(=O)O)NC(=O)[C@H](CC(C)C)NC(=O)[C@H](C2CCCCC2)NC1=O
B6: SEQ ID NO: 460 (peptide)
peptide: Ac-W[NMeA]QSILDKH[Chg]QDVW-NH2
modifications: lactam 8-12; not fully specified; printed as Ac-NH-W-NMeA-QSILDK*H-Chg-QD*VW-NH2
B7: SEQ ID NO: 466 (peptide)
peptide: Ac-W[NMeA]QSILDEH[Chg]QKVW-NH2
modifications: lactam 8-12; not fully specified; printed as Ac-NH-W-NMeA-QSILDE*H-Chg-QK*VW-NH2
B8: SEQ ID NO: 244 (peptide)
peptide: KWFLIXAWD
HELM: PEPTIDE1{K.W.F.L.I.[Abu].A.W.D}$PEPTIDE1,PEPTIDE1,1:R3-9:R3$$$V2.0
SMILES: CC[C@@H]1NC(=O)[C@H]([C@@H](C)CC)NC(=O)[C@H](CC(C)C)NC(=O)[C@H](Cc2ccccc2)NC(=O)[C@H](Cc2c[nH]c3ccccc23)NC(=O)[C@@H](N)CCCCNC(=O)C[C@@H](C(=O)O)NC(=O)[C@H](Cc2c[nH]c3ccccc23)NC(=O)[C@H](C)NC1=O
B9: SEQ ID NO: 243 (peptide)
peptide: KWFLIXAWD
HELM: PEPTIDE1{[ac].K.W.F.L.I.[Abu].A.W.D}$PEPTIDE1,PEPTIDE1,2:R3-10:R3$$$V2.0
SMILES: CC[C@@H]1NC(=O)[C@H]([C@@H](C)CC)NC(=O)[C@H](CC(C)C)NC(=O)[C@H](Cc2ccccc2)NC(=O)[C@H](Cc2c[nH]c3ccccc23)NC(=O)[C@@H](NC(C)=O)CCCCNC(=O)C[C@@H](C(=O)O)NC(=O)[C@H](Cc2c[nH]c3ccccc23)NC(=O)[C@H](C)NC1=O
B10: SEQ ID NO: 233 (peptide)
peptide: DWFLICAWK
HELM: PEPTIDE1{D.W.F.L.I.C.A.W.K}$PEPTIDE1,PEPTIDE1,1:R3-9:R3$$$V2.0
SMILES: CC[C@H](C)[C@@H]1NC(=O)[C@H](CC(C)C)NC(=O)[C@H](Cc2ccccc2)NC(=O)[C@H](Cc2c[nH]c3ccccc23)NC(=O)[C@@H](N)CC(=O)NCCCC[C@@H](C(=O)O)NC(=O)[C@H](Cc2c[nH]c3ccccc23)NC(=O)[C@H](C)NC(=O)[C@H](CS)NC1=O
B11: SEQ ID NO: 245 (peptide)
peptide: XWFLICAWD
HELM: PEPTIDE1{[O=C(CCCCCN[*:1])[*:2]].W.F.L.I.C.A.W.D}$PEPTIDE1,PEPTIDE1,1:R1-9:R3$$$V2.0
SMILES: CC[C@H](C)[C@@H]1NC(=O)[C@H](CC(C)C)NC(=O)[C@H](Cc2ccccc2)NC(=O)[C@H](Cc2c[nH]c3ccccc23)NC(=O)CCCCCNC(=O)C[C@@H](C(=O)O)NC(=O)[C@H](Cc2c[nH]c3ccccc23)NC(=O)[C@H](C)NC(=O)[C@H](CS)NC1=O
B12: SEQ ID NO: 230 (peptide)
peptide: MWKLIEFWG
HELM: PEPTIDE1{M.W.K.L.I.E.F.W.G}$PEPTIDE1,PEPTIDE1,3:R3-6:R3$$$V2.0
SMILES: CC[C@H](C)[C@@H]1NC(=O)[C@H](CC(C)C)NC(=O)[C@@H](NC(=O)[C@H](Cc2c[nH]c3ccccc23)NC(=O)[C@@H](N)CCSC)CCCCNC(=O)CC[C@@H](C(=O)N[C@@H](Cc2ccccc2)C(=O)N[C@@H](Cc2c[nH]c3ccccc23)C(=O)NCC(=O)O)NC1=O
B13: SEQ ID NO: 470 (peptide)
peptide: Ac-W[NMeA]QSILDEH[Chg]QKVWG-NH2
modifications: lactam 8-12; not fully specified; printed as Ac-NH-W-NMeA-QSILDE*H-Chg-QK*VWG-NH2
B14: SEQ ID NO: 437 (peptide)
peptide: WAQSILDEHVQKVWG
HELM: PEPTIDE1{[ac].W.[meA].Q.S.I.L.D.E.H.V.Q.K.V.W.G.[am]}$PEPTIDE1,PEPTIDE1,9:R3-13:R3$$$V2.0
SMILES: CC[C@H](C)[C@H](NC(=O)[C@H](CO)NC(=O)[C@H](CCC(N)=O)NC(=O)[C@H](C)N(C)C(=O)[C@H](Cc1c[nH]c2ccccc12)NC(C)=O)C(=O)N[C@@H](CC(C)C)C(=O)N[C@@H](CC(=O)O)C(=O)N[C@H]1CCC(=O)NCCCC[C@@H](C(=O)N[C@H](C(=O)N[C@@H](Cc2c[nH]c3ccccc23)C(=O)NCC(N)=O)C(C)C)NC(=O)[C@H](CCC(N)=O)NC(=O)[C@H](C(C)C)NC(=O)[C@H](Cc2c[nH]cn2)NC1=O

The assay has as its target T1, β-catenin (UniProt P35222 134-665, limits assumed, biotinylated in the SPR and plate assays).
T1 construct: also called beta catenin; biotinylated β-catenin
T1 sequence (looked up): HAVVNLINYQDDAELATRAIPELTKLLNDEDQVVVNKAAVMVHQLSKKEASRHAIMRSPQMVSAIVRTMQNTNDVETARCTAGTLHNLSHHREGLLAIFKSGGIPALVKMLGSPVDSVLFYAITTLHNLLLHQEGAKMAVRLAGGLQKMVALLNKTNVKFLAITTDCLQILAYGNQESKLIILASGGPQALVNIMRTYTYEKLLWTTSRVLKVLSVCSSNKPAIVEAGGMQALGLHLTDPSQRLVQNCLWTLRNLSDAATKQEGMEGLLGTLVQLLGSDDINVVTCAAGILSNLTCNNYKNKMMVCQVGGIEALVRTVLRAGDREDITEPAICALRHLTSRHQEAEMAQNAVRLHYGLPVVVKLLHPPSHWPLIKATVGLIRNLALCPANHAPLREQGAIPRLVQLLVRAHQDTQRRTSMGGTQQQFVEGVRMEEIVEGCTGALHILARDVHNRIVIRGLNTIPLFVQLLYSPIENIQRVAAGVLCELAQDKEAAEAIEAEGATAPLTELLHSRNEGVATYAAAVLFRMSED
Description: competitive FP. The text has this:
Fluorescence polarization (FP) is another method used to analyze protein-ligand interactions. This methodology measures the change in fluorescence light emitted by a labelled compound free vs. conjugated to another compound in solution. Upon binding of the fluorescent molecule to a complex, polarization increases because of limited rotation of the fluorescent tracer. Competitive FP is often utilized in drug screens as it is formatted for high throughput screens in a plate format. This immunoassay is performed by introducing a non-conjugated drug to compete for binding to the labelled competitor-ligand complex, leading to a reduction in polarization. […] Exemplary methodology is described in Example 13. Data were analyzed and plotted in Microsoft Excel (Microsoft, Redmond, WA).
Varying concentrations of β-catenin inhibitor candidate (SEQ ID NO: 404) were then added in a series of serial dilutions from 10 nM to 30 uM of inhibitor in different wells of the plate. The fluorescence polarization was read by Infinite M1000 (Tecan, Baldwin Park CA) at excitation wavelength of 470 nm and measured at emission wavelength of 520 nm. […] The experiments were performed three times and data were analyzed and plotted in Microsoft Excel (Microsoft, Redmond, WA).
B1 had a Kd of no more than 400 nM. In the case of B2, the Kd is > 400 nM and ≤ 1000 nM. Consider B3, for which the Kd was no more than 400 nM. As for B4, the Kd was > 400 nM and ≤ 1000 nM.

B5: the dissociation constant (Kd) was no more than 400 nM. B6 yielded a Kd of no more than 400 nM. Molecule WPQSILDKHGQDVW (not fully specified; Ac-NH-WPQSILDK*H-Chg-QD*VW-NH2) [SEQ ID NO: 462] had a Kd of no more than 400 nM.

Regarding Ac-LISFWG-OH [SEQ ID NO: 238], the Kd was > 10000 nM and ≤ 30000 nM.

Take B7: the Kd is no more than 400 nM. In turn, WPQSILDEHGQKVW (not fully specified; Ac-NH-WPQSILDE*H-Chg-QK*VW-NH2) [SEQ ID NO: 468] yielded a Kd of no more than 400 nM. The same measure for B8: > 400 nM and ≤ 1000 nM. As to Ac-WILIAFWG-OH [SEQ ID NO: 263], the Kd is > 400 nM and ≤ 1000 nM. For the molecule B9, the Kd was > 10000 nM and ≤ 30000 nM. Regarding B10, the Kd is no more than 400 nM. For the molecule B11, the Kd is no more than 400 nM. In the case of B12, the Kd is no more than 400 nM. In turn, B13 registered a Kd of no more than 400 nM. Turning to B14, the Kd was no more than 400 nM.

Source of the values: patent publication US20260098059A1 (ENDOMET BIOSCIENCES, published 2026).
